The Km is the substrate concentration at which the rate is half of its maximum. By kcat is commonly meant the number of substrate molecules converted per active site and unit of time at saturation. What is called kcat/Km is the second-order rate constant that governs catalysis at low substrate concentration.

We go through two molecules from paper PMC12152530, “Efficient One‐Step Production of 7S,17S‐ and 10S,17S‐Dihydroxydocosahexaenoic Acids by a Double‐Oxygenating 15S‐Lipoxygenase From Chlamydomonas incerta” (Biotechnology and Bioengineering, 2025).

Data set [1] has as its target T1, V. carteri f. nagariensis LOX (D8U0N8) (Volvox carteri, UniProt D8U0N8).
T1 construct: gene VOLCADRAFT_105417; synthesized gene in pET-28a(+), expressed in E. coli ER2566
T1 sequence (D8U0N8 1-1056): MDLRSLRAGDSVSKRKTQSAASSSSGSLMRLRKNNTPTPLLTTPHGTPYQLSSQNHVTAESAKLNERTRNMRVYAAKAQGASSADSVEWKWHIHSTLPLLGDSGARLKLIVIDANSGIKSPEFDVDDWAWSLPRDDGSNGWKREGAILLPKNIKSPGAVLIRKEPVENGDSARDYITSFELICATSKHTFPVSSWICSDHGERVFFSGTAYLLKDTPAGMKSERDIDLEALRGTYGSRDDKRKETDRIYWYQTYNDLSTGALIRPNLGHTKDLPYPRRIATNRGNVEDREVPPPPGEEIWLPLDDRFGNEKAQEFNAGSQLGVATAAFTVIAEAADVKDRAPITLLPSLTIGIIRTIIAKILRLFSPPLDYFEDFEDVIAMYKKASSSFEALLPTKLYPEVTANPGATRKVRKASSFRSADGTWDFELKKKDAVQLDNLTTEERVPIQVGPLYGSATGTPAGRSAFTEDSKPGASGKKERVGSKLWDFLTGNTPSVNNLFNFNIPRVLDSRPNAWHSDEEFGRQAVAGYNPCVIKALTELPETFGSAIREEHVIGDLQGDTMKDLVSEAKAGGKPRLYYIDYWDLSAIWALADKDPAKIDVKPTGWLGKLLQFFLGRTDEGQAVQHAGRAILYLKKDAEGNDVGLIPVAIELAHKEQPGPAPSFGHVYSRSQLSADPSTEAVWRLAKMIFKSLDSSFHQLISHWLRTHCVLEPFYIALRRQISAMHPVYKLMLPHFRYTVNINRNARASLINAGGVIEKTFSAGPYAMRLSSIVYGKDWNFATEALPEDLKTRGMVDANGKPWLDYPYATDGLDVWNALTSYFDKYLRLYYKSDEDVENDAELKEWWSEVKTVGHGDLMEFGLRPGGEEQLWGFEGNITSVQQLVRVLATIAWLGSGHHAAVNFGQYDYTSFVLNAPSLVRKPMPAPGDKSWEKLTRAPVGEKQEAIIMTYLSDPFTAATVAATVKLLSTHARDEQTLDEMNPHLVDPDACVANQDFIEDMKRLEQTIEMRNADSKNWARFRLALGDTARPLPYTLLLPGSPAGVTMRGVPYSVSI
The data set is described as follows: product analysis after reaction with ARA. Particulars: enzyme preparation not stated; products HETE and DiHETE. Format: cell-based.

Substrate in data set [2]: CC/C=C\C/C=C\C/C=C\C/C=C\C/C=C\CCCC(=O)O
The experiment in a line: purified protein. Conditions: 50 mM HEPPS pH 7.5, 35°C, 5 min, substrate 0.05-0.2 mM, product 15S-HEPA (first oxygenation). Format: biochemical, Chlamydomonas incerta.

Substrate in data set [3]: CCCCC/C=C\C/C=C\C/C=C\C/C=C\CCCC(=O)O
The data set is described as follows: purified protein. Format: biochemical, Chlamydomonas incerta. Particulars: 50 mM HEPPS pH 7.5, 35°C, 5 min, substrate 0.05-0.2 mM, product 15S-HETE (first oxygenation).

Substrate in data set [4]: CC/C=C\C/C=C\C/C=C\C/C=C\C/C=C\C/C=C\CCC(=O)O
The data set is described as follows: purified protein. It is filed as biochemical, Chlamydomonas incerta. Conditions: 50 mM HEPPS pH 7.5, 35°C, 5 min, substrate 0.05-0.2 mM, product 17S-HDHA (first oxygenation).

In the case of `CCCCC/C=C\C/C=C\C/C=C\C/C=C\CCCC(=O)O` [ARA], the “product analysis after reaction with ARA” value in data set [1] was “only those from V. carteri f. nagariensis (D8U0N8)”.

B1: C. incerta 15S-LOX (Chlamydomonas incerta) (protein)
chain: MNGAHSPGEVAVWKASIESSAPLLGDTGTRLEIVVIDLDTDRRSEPTNVDSWRPPVLESGPGSSTARSGASSGSGTSGWKREGRLPLPADFLTPGAVLVRKSRTVDGNASVDFIGTIKLVSATKVFHFPVHSWVSSDHDWRVFFEGTAYLPAHTPPSLRDERQRELQELQGTPATRTLERRPADRIYWYQTYDDLSSAGEGGYRPALGATARRPYPRRIATNRGAADGHPDREKPPVKAGDKPWLPYDEQFSFDKAADFNGDTLTAALPAAFSFIAEAGDQRHLTWLNLLPTAVHGLVRNVLRAVLGYAEPPAANFDSFEDVLAFFGEDAASRGSSMAPTQLYPAGQEAAMKGFGAPHDPRNPAPFKTASGAWDFRLNSAAAAAINDQIAADRVGPVPDSATGGPSSGAATAATAFAATAAAATAAGAPAAAITAPPQPGVPNLIGLLGSAVWRRLTNDPSHDINDLLYFPVPRVVDGRPDAWYTDEEYGRQALAGYHPTAITALTQLPEAFGSAIRAHHVEAELQGSSLEALVAAAAGGAKPRLYLIDHWDLSAYWQEAEEEAEAARKAGRKPPSAVQHAGRCLFYLRKDEVTGEDTALVPIAIELAHPGTHKASNGTSAPLPPTAGEVYARSELVASPQTLAVWRLAKAVFRSLDTSIHQLVAHFNRTHAALEPFLIAMRRQMSVMHPITKLMLPHFRYTLNINRNARASLINAGGIIEKTFSAGPFAMRLASAVYGKSWTFAGQALPEDLRERGMLDAAGRPWLDYPFAIDGLDTWAALTAYFDQYVSLYYDGDGAVLEDGELQAWWDEVKTEGHPDIVAFGLKSEQQVWGFTGPIAKRSDLVHVLATIAWLASGHHAAVNFGQYDFTGLILNASSLVRRPMPAPKEPAYKELTGAALGPPQERVFMTYLADPFSAVQVLATVKLLSAHARDEHTLDEANDYIVDPAAREANRAFIAAVKQLESAIETRNADPANWARYGLAAGTAAPLPYTLLMASSPPGVTMRGVPYSVSI
notes: synthesized gene in pET-28a(+), E. coli ER2566, His-Trap purified, His6 tag kept; 1016 residues plus six His, 109,248 (kDa [sic]), dimer 219 kDa
B1: in the data set “purified protein [2]”, the Km stood at 191 ± 0.1 µM, the kcat worked out at 143 ± 0.2 s⁻¹ and the specificity constant (kcat/Km) stood at 750000 ± 100000 M⁻¹ s⁻¹. Further, in “purified protein [3]”, the Km came to 101 ± 0.02 µM, the kcat stood at 149 ± 0.2 s⁻¹ and the specificity constant (kcat/Km) came out at 1.47e+06 ± 100000 M⁻¹ s⁻¹. In addition, in “purified protein [4]”, the Michaelis-Menten constant (Km) was 98.5 ± 0.1 µM, the kcat was found to be 121 ± 0.2 s⁻¹ and the kcat/Km was found to be 980000 ± 100000 M⁻¹ s⁻¹.
